Experimental data taken from patent publication US20110129459A1 (Chugai, published 2011).
Where two headings read alike, the source gives them in different places.

How the values were obtained:
[1] = biological target: T1, rhNR10 (recombinant human NR10) (human, UniProt Q8NI17 20-519, limits assumed); test: SPR, Biacore T100; antibody captured on Protein A, rhNR10 as analyte
T1 construct: also called IL-31 receptor; IL31RA
T1 sequence: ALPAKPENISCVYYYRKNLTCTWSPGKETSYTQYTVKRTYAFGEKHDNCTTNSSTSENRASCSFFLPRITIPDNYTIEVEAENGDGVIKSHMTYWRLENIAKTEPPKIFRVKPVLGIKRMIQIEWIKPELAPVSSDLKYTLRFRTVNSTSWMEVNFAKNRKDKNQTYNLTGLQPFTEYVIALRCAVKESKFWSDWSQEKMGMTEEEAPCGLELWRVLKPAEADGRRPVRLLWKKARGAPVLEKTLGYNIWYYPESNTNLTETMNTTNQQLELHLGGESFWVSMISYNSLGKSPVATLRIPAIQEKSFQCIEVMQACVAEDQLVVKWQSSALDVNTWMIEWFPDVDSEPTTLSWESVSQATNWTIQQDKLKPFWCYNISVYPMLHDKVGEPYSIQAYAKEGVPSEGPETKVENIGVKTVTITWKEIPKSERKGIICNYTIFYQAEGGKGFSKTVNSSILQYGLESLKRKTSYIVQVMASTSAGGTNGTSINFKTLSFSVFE
Experimental: (§1) Kinetic analysis of the antigen-antibody reaction was carried out using Biacore T100 (GE Healthcare Biosciences). The antigen-antibody interaction was measured by immobilizing rec-Protein A (hereinafter Protein A) (ZYMED) onto a sensor chip, capturing an antibody on the immobilized Protein A, and then reacting the antigen as an analyte. Various concentrations of rhNR10 were used as the antigen. The kinetic parameters, association rate constant kₐ (1/Ms) and dissociation rate constant kd (1/s), were calculated from the sensorgrams obtained by the measurement. Then, KD (M) was determined based on the rate constants. Each parameter was determined using Biacore T100 Evaluation Software version 1.1 (GE Healthcare Biosciences).
(§2) The running buffer used was HBS-EP+. Each antibody was prepared at 0.25 μg/ml, or prepared so that about 100 RU would bind to Protein A. rhNR10 used as an analyte was prepared at 0, 38.5, 77.0, and 154 nM, or at 0, 19.25, and 77.01 nM using HBS-EP+. In the measurement, first, the antibody solution was captured on Protein A, and an analyte solution was reacted at a flow rate of 20 μL/min for three minutes. Then, the solution was switched to HBS-EP+, and the dissociation phase was measured for five minutes. After measurement of the dissociation phase, the sensor chip was regenerated by washing with 10 mM glycine-HCl (pH 1.5). The obtained sensorgrams were kinetically analyzed using the Biacore-specific data analysis software, Biacore T100 Evaluation Software Version 1.1.

[2] = biological target: T1, rhNR10 (recombinant human NR10); test: as above; remark: listed apart in the source
Experimental: as §1, §2

B1: H0La130 (H0-SKSC / La130) (antibody, V domains shown)
VH: QVQLVQSGAEVKKPGASVKVSCKASGYTFTGYIMNWVRQAPGQGLEWMGLINPYNGGTSYNQKFKGRVTITADESTSTAYMELSSLRSEDTAVYYCARDGYDDGPYTMDYWGQGTLVTVSS
VL: DIQMTQSPSSLSASVGDRVTITCRTSENIYRFVAWYQQKPGKAPKLLIYNAKTLAKGVPSRFSGSGSGTDFTLTISSLQPEDFATYYCQHHYESPLTFGGGTKVEIKR
Kd [1]: 1.5 nM | koff [1]: 0.0004 s⁻¹ | kon [1]: 260000 M⁻¹ s⁻¹

B2: H30L17 (H30-M58 / L17) (antibody, V domains shown)
VH: QVQLVQSGAEVKKPGASVKVSCKASGYTFTGYIMNWVRQAPGQGLEWMGLINPYNGGTDYNPQFQDRVTITADESTSTAYMELSSLRSEDTAVYYCARDGYDDGPYTLETWGQGTLVTVSS
VL: DIQMTQSPSSLSASVGDRVTITCQASEDIYSFVAWYQQKPGKAPKLLIYNAQTEAQGVPSRFSGSGSGTDFTLTISSLQPEDFATYYCQHHYDSPLTFGGGTKVEIKR
Kd [2]: 0.83 nM | koff [2]: 0.00057 s⁻¹ | kon [2]: 680000 M⁻¹ s⁻¹

B3: H97L50 (H97-M58 / L50) (antibody, V domains shown)
VH: QVQLVQSGAEVKKPGASVKVSCKASGYTFTGYIMNWVRQAPGQGLEWMGLINPYNGGTSYNQQFQDRVTITADESTSTAYMELSSLRSEDTAVYYCARDGYDDGPYTLETWGQGTLVTVSS
VL: DIQMTQSPSSLSASVGDRVTITCQASEDIYSFLAWYQQKPGKAPKLLIYNAQTEAQGVPSRFSGSGSGTDFTLTISSLQPEDFATYYCQHHYDSPLTFGGGTKVEIKR
Kd [2]: 3.5 nM | koff [2]: 0.0013 s⁻¹ | kon [2]: 360000 M⁻¹ s⁻¹

B4: H42L17 (H42-M58 / L17) (antibody, V domains shown)
VH: QVQLVQSGAEVKKPGASVKVSCKASGYTFTGYVLNWVRQAPGQGLEWMGLINPYNGGTDYNPQFQDRVTITADKSTSTAYMELSSLRSEDTAVYYCARDGYDDGPYTLETWGQGTLVTVSS
VL: DIQMTQSPSSLSASVGDRVTITCQASEDIYSFVAWYQQKPGKAPKLLIYNAQTEAQGVPSRFSGSGSGTDFTLTISSLQPEDFATYYCQHHYDSPLTFGGGTKVEIKR
Kd [2]: 0.65 nM | koff [2]: 0.00037 s⁻¹ | kon [2]: 570000 M⁻¹ s⁻¹

B5: H28L17 (H28-M58 / L17) (antibody, V domains shown)
VH: QVQLVQSGAEVKKPGASVKVSCKASGYTFTGYVLNWVRQAPGQGLEWMGLINPYNGGTDYNPQFQDRVTITADESTSTAYMELSSLRSEDTAVYYCARDGYDDGPYTLETWGQGTLVTVSS
VL: DIQMTQSPSSLSASVGDRVTITCQASEDIYSFVAWYQQKPGKAPKLLIYNAQTEAQGVPSRFSGSGSGTDFTLTISSLQPEDFATYYCQHHYDSPLTFGGGTKVEIKR
Kd [2]: 0.52 nM | koff [2]: 0.00033 s⁻¹ | kon [2]: 640000 M⁻¹ s⁻¹

B6: H71L17 (H71-M58 / L17) (antibody, V domains shown)
VH: QVQLVQSGAEVKKPGASVKVSCKASGYTFTGYAMNWVRQAPGQGLEWMGLINPYNGGTDYNPQFQGRVTITADESTSTAYMELSSLRSEDTAVYYCARDGYDDGPYTLETWGQGTLVTVSS
VL: DIQMTQSPSSLSASVGDRVTITCQASEDIYSFVAWYQQKPGKAPKLLIYNAQTEAQGVPSRFSGSGSGTDFTLTISSLQPEDFATYYCQHHYDSPLTFGGGTKVEIKR
Kd [2]: 3.3 nM | koff [2]: 0.0012 s⁻¹ | kon [2]: 370000 M⁻¹ s⁻¹

B7: H0La303 (H0-SKSC / La303) (antibody, V domains shown)
VH: QVQLVQSGAEVKKPGASVKVSCKASGYTFTGYIMNWVRQAPGQGLEWMGLINPYNGGTSYNQKFKGRVTITADESTSTAYMELSSLRSEDTAVYYCARDGYDDGPYTMDYWGQGTLVTVSS
VL: DIQMTQSPSSLSASVGDRVTITCRTSENIYSFLAWYQQKPGKAPKLLIYNAKTLAKGVPSRFSGSGSGTDFTLTISSLQPEDFATYYCQHHYDSPLTFGGGTKVEIKR
notes: also called Ls303
Kd [1]: 2.1 nM | koff [1]: 0.00046 s⁻¹ | kon [1]: 220000 M⁻¹ s⁻¹

B8: H0La134 (H0-SKSC / La134) (antibody, V domains shown)
VH: QVQLVQSGAEVKKPGASVKVSCKASGYTFTGYIMNWVRQAPGQGLEWMGLINPYNGGTSYNQKFKGRVTITADESTSTAYMELSSLRSEDTAVYYCARDGYDDGPYTMDYWGQGTLVTVSS
VL: DIQMTQSPSSLSASVGDRVTITCRTSENIYRFLAWYQQKPGKAPKLLIYNAKTLAKGVPSRFSGSGSGTDFTLTISSLQPEDFATYYCQHHYESPLTFGGGTKVEIKR
Kd [1]: 1.8 nM | koff [1]: 0.00044 s⁻¹ | kon [1]: 250000 M⁻¹ s⁻¹

B9: H46L17 (H46-M58 / L17) (antibody, V domains shown)
VH: QVQLVQSGAEVKKPGASVKVSCKASGYTFTGYAMNWVRQAPGQGLEWMGLINPYNGGTDYNPQFQDRVTITADKSTSTAYMELSSLRSEDTAVYYCARDGYDDGPYTLETWGQGTLVTVSS
VL: DIQMTQSPSSLSASVGDRVTITCQASEDIYSFVAWYQQKPGKAPKLLIYNAQTEAQGVPSRFSGSGSGTDFTLTISSLQPEDFATYYCQHHYDSPLTFGGGTKVEIKR
Kd [2]: 4.6 nM | koff [2]: 0.0013 s⁻¹ | kon [2]: 290000 M⁻¹ s⁻¹

B10: H78L17 (H78-M58 / L17) (antibody, V domains shown)
VH: QVQLVQSGAEVKKPGASVKVSCKASGYTFTGYIMNWVRQAPGQGLEWMGLINPYNGGTDYNPQFQGRVTITADKSTSTAYMELSSLRSEDTAVYYCARDGYDDGPYTLETWGQGTLVTVSS
VL: DIQMTQSPSSLSASVGDRVTITCQASEDIYSFVAWYQQKPGKAPKLLIYNAQTEAQGVPSRFSGSGSGTDFTLTISSLQPEDFATYYCQHHYDSPLTFGGGTKVEIKR
Kd [2]: 1.1 nM | koff [2]: 0.0007 s⁻¹ | kon [2]: 610000 M⁻¹ s⁻¹

B11: H98L50 (H98-M58 / L50) (antibody, V domains shown)
VH: QVQLVQSGAEVKKPGASVKVSCKASGYTFTGYIMNWVRQAPGQGLEWMGLINPYNGGTSYNQQFQDRVTITADKSTSTAYMELSSLRSEDTAVYYCARDGYDDGPYTLETWGQGTLVTVSS
VL: DIQMTQSPSSLSASVGDRVTITCQASEDIYSFLAWYQQKPGKAPKLLIYNAQTEAQGVPSRFSGSGSGTDFTLTISSLQPEDFATYYCQHHYDSPLTFGGGTKVEIKR
Kd [2]: 4.6 nM | koff [2]: 0.0013 s⁻¹ | kon [2]: 290000 M⁻¹ s⁻¹

B12: H57L17 (H57-M58 / L17) (antibody, V domains shown)
VH: QVQLVQSGAEVKKPGASVKVSCKASGYTFTGYIMNWVRQAPGQGLEWMGLINPYNGGTDYNPQFQGRVTITADESTSTAYMELSSLRSEDTAVYYCARDGYDDGPYTLETWGQGTLVTVSS
VL: DIQMTQSPSSLSASVGDRVTITCQASEDIYSFVAWYQQKPGKAPKLLIYNAQTEAQGVPSRFSGSGSGTDFTLTISSLQPEDFATYYCQHHYDSPLTFGGGTKVEIKR
Kd [2]: 0.77 nM | koff [2]: 0.00055 s⁻¹ | kon [2]: 710000 M⁻¹ s⁻¹

B13: H34L17 (H34-M58 / L17) (antibody, V domains shown)
VH: QVQLVQSGAEVKKPGASVKVSCKASGYTFTGYAMNWVRQAPGQGLEWMGLINPYNGGTDYNPQFQDRVTITADESTSTAYMELSSLRSEDTAVYYCARDGYDDGPYTLETWGQGTLVTVSS
VL: DIQMTQSPSSLSASVGDRVTITCQASEDIYSFVAWYQQKPGKAPKLLIYNAQTEAQGVPSRFSGSGSGTDFTLTISSLQPEDFATYYCQHHYDSPLTFGGGTKVEIKR
Kd [2]: 3.6 nM | koff [2]: 0.0012 s⁻¹ | kon [2]: 340000 M⁻¹ s⁻¹

B14: H92L17 (H92-M58 / L17) (antibody, V domains shown)
VH: QVQLVQSGAEVKKPGASVKVSCKASGYTFTGYAMNWVRQAPGQGLEWMGLINPYNGGTDYNPQFQGRVTITADKSTSTAYMELSSLRSEDTAVYYCARDGYDDGPYTLETWGQGTLVTVSS
VL: DIQMTQSPSSLSASVGDRVTITCQASEDIYSFVAWYQQKPGKAPKLLIYNAQTEAQGVPSRFSGSGSGTDFTLTISSLQPEDFATYYCQHHYDSPLTFGGGTKVEIKR
Kd [2]: 4.1 nM | koff [2]: 0.0013 s⁻¹ | kon [2]: 310000 M⁻¹ s⁻¹
